# Measured values reported in patent publication CN102952191A.
# B1: 噬菌体展示的单链抗体ZJL101 (phage-displayed scFv ZJL101; phage clones No. 3 and No. 4, identical inserts) (scFv, not shown: large carriers)
# scFv: MAQVQLVQSGTVVKKPGSSVKVSCKTSGGTLPNHAINWVRQASGQGLEWMGWMSPNTGDTGYARKFQGRVTMTRDTSISTAYMELSSLRSDDTAIYYCATGDPRVGHSWGQGTLVTVSSGGGGSGGGGSGGGGSDIQMTQSPPSLSASVGDRVTITCRASQTIGSHLNWYQQKPGKAPKLLITGASSLQSGVPARFTGSGFGTDFTLTISSLQVEDLATYSCQQTYNTPRTFGQGTKVEIK
# Molecular target: 基因重组表达的CD33胞外区 (recombinant CD33 extracellular domain) (human) (UniProt P20138)
# Chain of UniProt P20138 (P20138 18-259): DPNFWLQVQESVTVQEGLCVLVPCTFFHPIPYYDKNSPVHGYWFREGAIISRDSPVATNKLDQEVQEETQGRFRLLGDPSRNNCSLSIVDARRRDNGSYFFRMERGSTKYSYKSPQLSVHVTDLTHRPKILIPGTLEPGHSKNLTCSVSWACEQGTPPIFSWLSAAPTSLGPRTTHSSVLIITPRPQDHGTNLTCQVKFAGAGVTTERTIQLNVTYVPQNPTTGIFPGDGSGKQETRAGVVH
# Assay: phage ELISA, CD33-ECD coated, HRP/anti-M13 detection
binder,measurement,value
B1,OD450nm,1.6 OD450nm
